Assay [1] has as its target T1, soluble human RANKL protein (shRANKL) (human, UniProt O14788 140-317, limits assumed, biotinylated at a 20:1 molar ratio of NHS-biotin to protein (competition ELISA only)).
T1 construct: also called sRANKL; soluble RANKL
T1 sequence (looked up): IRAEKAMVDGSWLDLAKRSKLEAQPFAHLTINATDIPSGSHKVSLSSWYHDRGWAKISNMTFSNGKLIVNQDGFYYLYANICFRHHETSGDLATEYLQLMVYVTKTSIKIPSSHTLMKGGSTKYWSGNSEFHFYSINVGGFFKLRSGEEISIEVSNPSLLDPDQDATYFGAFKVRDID
The experiment in a line: competition ELISA: soluble RANK-Fc inhibiting biotinylated shRANKL binding to coated RANK-Fc. The source says:
(§1) A. A competition ELISA was established using a human RANK-Fc fusion protein coated on plastic and a biotinylated soluble human RANKL protein for detection in solution. The RANK-Fc and RANKL proteins were produced in CHO cells and Pichia pastoris, respectively, and purified to >90% homogeneity. The shRANKL (soluble, human RANKL) protein was biotinylated at a 20:1 molar ratio of NHS-biotin to protein (Pierce, Rockford, Ill.) according to th manufacturer's specifications. 96-well ELISA plates were coated overnight at 4° C. with 50 ng/well ([…]) RANK-Fc in pH 9.6 carbonate-bicarbonate buffer. Plates were washed in pH 7.4 Tris-Saline buffer containing 0.1% Tween 20 and blocked for 2 h at RT in 1% BSA/PBS. Competitor proteins (RANK-Fc; death receptor 5 (DR5)-Fc; OPG-Fc; RANKL MAb 19H22) were diluted in 0.01% Tween 20/PBS and added to wells prior to the addition of biotinylated shRANKL (0.43 nM) and the combined samples were incubated for 2 hrs at room temperature. The amount of biotinylated shRANKL bound to coated RANK-Fc (+/−competitor) was measured using alkaline phosphatase conjugated streptavidin. The substrate for signal detection was 105 PNPP (Pierce Inc., Rockford, Ill.) and absorbance measured at 405 nm using a Spectra Max 340 plate reader.

For assay [2], the target named is T1, soluble human RANKL protein (shRANKL). The experiment in a line: cell-based or functional assay.
For assay [3] the target is unchanged. The experiment in a line: competition ELISA: inhibition of biotinylated shRANKL binding to coated RANK-Fc.
Description: as §1
A general note: An ELISA detects its analyte on a solid surface through an enzyme-linked reagent.

Assay [4] shares this target. The experiment in a line: not stated there (paragraph 33 defines high affinity as determined by optical biosensor analysis).

Broadly, the IC50 is the concentration that inhibits the measured activity by half. The term Kd denotes the free concentration of one partner at which half of the binding sites on the other are occupied at equilibrium, for simple one-to-one binding.

B1: human RANK-Fc fusion protein (Fc fusion, UniProt Q9Y6Q6 30-212, looked up)
chain: IAPPCTSEKHYEHLGRCCNKCEPGKYMSSKCTTTSDSVCLPCGPDEYLDSWNEEDKCLLHKVCDTGKALVAVVAGNSTTPRRCACTAGYHWSQDCECCRRNTECAPGLGAQHPLQLNKDTVCKPCLAGYFSDAFSSTDKCRPWTNCTFLGKRVEHHGTEKSDAVCSSSLPARKPPNEPHVYLP
notes: Produced in CHO cells; not shown: Fc part
For the molecule B1, the IC50 in assay [1] was around 6 nM. The “IC50, human monocyte osteoclastogenesis (formation of multinuclear cells) with 50 ng/ml human soluble RANKL plus M-CSF” value in assay [2] is around 0.5 mg/L.

B2: OPG-Fc (Fc fusion, UniProt O00300 22-201, looked up)
chain: ETFPPKYLHYDEETSHQLLCDKCPPGTYLKQHCTAKWKTVCAPCPDHYYTDSWHTSDECLYCSPVCKELQYVKQECNRTHNRVCECKEGRYLEIEFCLKHRSCPPGFGVVQAGTPERNTVCKRCPDGFFSNETSSKAPCRKHTNCSVFGLLLTQKGNATHDNICSGNSESTQKCGIDVTL
notes: Construct not described; also called osteoprotegerin-Fc; not shown: Fc part; not described
For B2, in assay [3], the half-inhibitory concentration (IC50) is around 0.5 nM.

B3: RANKL MAb 19H22 (mouse monoclonal antibody 19H22) (antibody, IgG2b, V domains shown)
VH: EIQLQQSGAELVNPGASVKLSCTASGFNIKGTYMHWVKQRPEQGLEWIGRIDPANGNTKYDPKFQGKATITTDTSPNTAYLQLSSLTSEDTAVYYCTTQFHYYGYGGVYWGQGTLVTVSA
VL: QIVLTQSPAIMSASPGEKVTMTCSASSSVSYMYWYQQKPGSSPRLLIYDTSNLASGVPVRFSGSGSGTSYSLTISRMEAEDAATYYCQQWSNFPLTFGAGTKLELKR
notes: also called 19H22 MAb; murine RANKL MAb 19H22
For the molecule B3, the IC50 in assay [3] is around 2 nM. The “IC50, human monocyte osteoclastogenesis (formation of multinuclear cells) with 50 ng/ml human soluble RANKL plus M-CSF” value in assay [2] is around 4 mg/L. In addition, the Kd in assay [4] is around 0.1 nM.
